Measured values taken from patent publication US20240190962A1 (IMMUNOWAKE, published 2024).
Where a chain is given by its changes, count along the chain named. Names may count otherwise. Each block holds one binder with its values, some of them ahead of it.

Experiments:
[1] = target: T1, human IL-2 receptor (IL-2Rα, IL-2Rβ, IL-2Rγ) (human, UniProt P01589 22-272; P14784 27-551; P31785 23-369); assay: cell-based or functional assay
T1 sequence (looked up) 1: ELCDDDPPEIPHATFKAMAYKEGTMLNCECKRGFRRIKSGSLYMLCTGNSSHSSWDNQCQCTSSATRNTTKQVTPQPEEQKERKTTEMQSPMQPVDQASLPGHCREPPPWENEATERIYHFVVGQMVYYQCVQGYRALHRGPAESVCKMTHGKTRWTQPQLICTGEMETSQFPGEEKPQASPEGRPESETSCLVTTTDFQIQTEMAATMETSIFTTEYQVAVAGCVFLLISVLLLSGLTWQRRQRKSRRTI
T1 sequence (looked up) 2: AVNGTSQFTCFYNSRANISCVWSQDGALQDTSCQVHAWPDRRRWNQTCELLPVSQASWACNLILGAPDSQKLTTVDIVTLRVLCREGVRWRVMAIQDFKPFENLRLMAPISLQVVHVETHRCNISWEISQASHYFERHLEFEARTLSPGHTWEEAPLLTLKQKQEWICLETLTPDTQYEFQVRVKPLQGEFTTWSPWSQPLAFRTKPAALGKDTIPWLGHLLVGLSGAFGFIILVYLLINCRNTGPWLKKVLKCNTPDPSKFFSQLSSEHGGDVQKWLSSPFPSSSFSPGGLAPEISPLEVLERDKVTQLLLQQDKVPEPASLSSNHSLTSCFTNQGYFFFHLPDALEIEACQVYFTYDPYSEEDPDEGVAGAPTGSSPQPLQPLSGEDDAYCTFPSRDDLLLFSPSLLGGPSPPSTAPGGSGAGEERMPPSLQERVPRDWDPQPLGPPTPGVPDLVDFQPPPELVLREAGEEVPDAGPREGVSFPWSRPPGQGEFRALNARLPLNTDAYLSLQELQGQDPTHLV
T1 sequence (looked up) 3: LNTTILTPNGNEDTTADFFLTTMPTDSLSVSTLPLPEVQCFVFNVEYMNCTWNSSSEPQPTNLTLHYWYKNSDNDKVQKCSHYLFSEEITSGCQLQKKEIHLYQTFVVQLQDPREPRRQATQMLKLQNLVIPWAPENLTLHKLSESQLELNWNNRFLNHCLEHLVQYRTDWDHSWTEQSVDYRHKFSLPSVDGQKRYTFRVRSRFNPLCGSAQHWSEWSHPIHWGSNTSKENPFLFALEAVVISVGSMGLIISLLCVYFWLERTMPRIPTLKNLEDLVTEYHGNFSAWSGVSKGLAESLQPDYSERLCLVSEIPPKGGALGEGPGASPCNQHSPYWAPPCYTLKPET

[2] = target: T2, human IL-12 receptor complex (IL-12Rβ1, IL-12Rβ2) (human, UniProt P42701 24-662; Q99665 24-862); assay: cell-based or functional assay
CD8 on CD8+ T cells = target: T3, CD8 on CD8+ T cells (UniProt P01732 22-235); assay: FACS
T3 construct: whole, on cells

[3] = target: T2, human IL-12 receptor complex (IL-12Rβ1, …); assay: cell-based or functional assay; remark: listed apart in the source

T3 sequence (P01732 22-235): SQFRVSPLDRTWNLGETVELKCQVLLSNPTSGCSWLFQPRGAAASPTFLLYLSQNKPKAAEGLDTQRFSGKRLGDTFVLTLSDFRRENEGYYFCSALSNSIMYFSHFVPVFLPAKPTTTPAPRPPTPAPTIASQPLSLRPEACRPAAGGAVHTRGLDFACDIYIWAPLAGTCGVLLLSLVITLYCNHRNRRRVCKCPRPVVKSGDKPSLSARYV
T2 sequence (Q99665 24-862, chain 2 of 2, other chains not shown): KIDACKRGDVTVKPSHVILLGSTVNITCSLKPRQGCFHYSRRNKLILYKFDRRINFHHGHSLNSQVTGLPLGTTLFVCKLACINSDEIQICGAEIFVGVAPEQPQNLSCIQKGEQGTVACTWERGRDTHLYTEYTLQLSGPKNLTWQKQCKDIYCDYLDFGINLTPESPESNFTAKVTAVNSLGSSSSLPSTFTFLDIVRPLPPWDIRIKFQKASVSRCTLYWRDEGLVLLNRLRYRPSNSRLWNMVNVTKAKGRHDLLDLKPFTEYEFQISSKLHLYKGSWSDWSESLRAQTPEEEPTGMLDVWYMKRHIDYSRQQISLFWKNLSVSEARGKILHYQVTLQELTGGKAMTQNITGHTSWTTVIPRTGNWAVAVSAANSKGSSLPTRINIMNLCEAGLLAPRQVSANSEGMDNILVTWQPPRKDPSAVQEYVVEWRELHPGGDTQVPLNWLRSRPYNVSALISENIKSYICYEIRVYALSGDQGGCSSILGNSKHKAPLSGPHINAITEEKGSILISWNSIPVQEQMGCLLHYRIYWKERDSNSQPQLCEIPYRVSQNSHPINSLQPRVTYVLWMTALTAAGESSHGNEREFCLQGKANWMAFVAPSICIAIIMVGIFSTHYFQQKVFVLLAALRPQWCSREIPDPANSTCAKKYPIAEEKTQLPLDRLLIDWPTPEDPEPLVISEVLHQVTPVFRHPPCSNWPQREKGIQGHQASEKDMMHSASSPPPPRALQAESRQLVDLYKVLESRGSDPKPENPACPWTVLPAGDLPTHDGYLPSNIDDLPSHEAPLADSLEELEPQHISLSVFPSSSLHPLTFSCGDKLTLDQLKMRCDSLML

B1: PD-L1(mut2)-Fc/IL-12(E59A/F60A) (Fc fusion)
chain 1: FTVTVPKDLYVVEYGSNMTIECKFPVEKQLDLAALQVYWMMEDKNIIQFVHGEEDLKVQHSSYRQRARLLKDQLSLGNAALQITDVKLQDAGVYTCLIAYKGADYKRITVKVNAPYNKINQRILVVDPVTSEHELTCQAEGYPKAEVIWTSSDHQVLSGKTTTTNSKREEKLFNVTSTLRINTTTNEIFYCTFRRLDPEENHTAELVIPELPLAHPPNERGGGGSGGGDKTHTCPPCPAPEDEGGPSVFLFPPKPKDTLMISRTPEVTCVVVDVSHEDPEVKFNWYVDGVEVHNAKTKPREEQYNSTYRVVSVLTVLHQDWLNGKEYKCKVSNKALPAPIEKTISKAKGQPREPQVYVYPPSREEMTKNQVSLTCLVKGFYPSDIAVEWESNGQPENNYKTTPPVLDEDGSFALVSKLTVDKSRWQQGNVFSCSVMHEALHNHYTQKSLSLSPGKGGGGSGGGIWELKKDVYVVELDWYPDAPGEMVVLTCDTPEEDGITWTLDQSSEVLGSGKTLTIQVKAAGDAGQYTCHKGGEVLSHSLLLLHKKEDGIWSTDILKDQKEPKNKTFLRCEAKNYSGRFTCWWLTTISTDLTFSVKSSRGSSDPQGVTCGAATLSAERVRGDNKEYEYSVECQEDSACPAAEESLPIEVMVDAVHKLKYENYTSSFFIRDIIKPDPPKNLQLKPLKNSRQVEVSWEYPDTWSTPHSYFSLTFCVQVQGKSKREKKDRVFTDKTSATVICRKNASISVRAQDRYYSSSWSEWASVPCSGGGGSGGGSGGGGSRNLPVATPDPGMFPCLHHSQNLLRAVSNMLQKARQTLEFYPCTSEEIDHEDITKDKTSTVEACLPLELTKNESCLNSRETSFITNGSCLASRKTSFMMALCLSSIYEDLKMYQVEFKTMNAKLLMDPKRQIFLDQNMLAVIDELMQALNFNSETVPQKSSLEEPDFYKTKIKLCILLHAFRIRAVTIDRVMSYLNAS
chain 2: FTVTVPKDLYVVEYGSNMTIECKFPVEKQLDLAALQVYWMMEDKNIIQFVHGEEDLKVQHSSYRQRARLLKDQLSLGNAALQITDVKLQDAGVYTCLIAYKGADYKRITVKVNAPYNKINQRILVVDPVTSEHELTCQAEGYPKAEVIWTSSDHQVLSGKTTTTNSKREEKLFNVTSTLRINTTTNEIFYCTFRRLDPEENHTAELVIPELPLAHPPNERGGGGSGGGDKTHTCPPCPAPEKKGGPSVFLFPPKPKDTLMISRTPEVTCVVVDVSHEDPEVKFNWYVDGVEVHNAKTKPREEQYNSTYRVVSVLTVLHQDWLNGKEYKCKVSNKALPAPIEKTISKAKGQPREPQVYVLPPSREEMTKNQVSLLCLVKGFYPSDIAVEWESNGQPENRYMTWPPVLDSDGSFFLYSKLTVDKSRWQQGNVFSCSVMHEALHNHYTQKSLSLSPGK
IL-2 biological activity, HEK-IL-2 [1]: < 0.1%
IL-2 biological activity, HEK-IL-2-PD-1 [1]: < 0.1%
IL-12 biological activity, HEK-IL-12 [2]: 1%
IL-12 biological activity, HEK-IL-12-PD-1 [2]: 25%

B2: IL-2(R38D/K43E/E61R/Q126T)/PD-L1(mut2)-Fc/IL-12(E59A/F60A) (Fc fusion)
chain 1: B1 chain 1
chain 2: FTVTVPKDLYVVEYGSNMTIECKFPVEKQLDLAALQVYWMMEDKNIIQFVHGEEDLKVQHSSYRQRARLLKDQLSLGNAALQITDVKLQDAGVYTCLIAYKGADYKRITVKVNAPYNKINQRILVVDPVTSEHELTCQAEGYPKAEVIWTSSDHQVLSGKTTTTNSKREEKLFNVTSTLRINTTTNEIFYCTFRRLDPEENHTAELVIPELPLAHPPNERGGGSGAPTSSSTKKTQLQLEHLLLDLQMILNGINNYKNPKLTDMLTFEFYMPKKATELKHLQCLERELKPLEEVLNLAQSKNFHLRPRDLISNINVIVLELKGSETTFMCEYADETATIVEFLNRWITFCTSIISTLTGGGGSGGGDKTHTCPPCPAPEKKGGPSVFLFPPKPKDTLMISRTPEVTCVVVDVSHEDPEVKFNWYVDGVEVHNAKTKPREEQYNSTYRVVSVLTVLHQDWLNGKEYKCKVSNKALPAPIEKTISKAKGQPREPQVYVLPPSREEMTKNQVSLLCLVKGFYPSDIAVEWESNGQPENRYMTWPPVLDSDGSFFLYSKLTVDKSRWQQGNVFSCSVMHEALHNHYTQKSLSLSPGK
IL-2 biological activity, HEK-IL-2 [1]: 3%
IL-2 biological activity, HEK-IL-2-PD-1 [1]: 31%
IL-12 biological activity, HEK-IL-12 [2]: 1%
IL-12 biological activity, HEK-IL-12-PD-1 [2]: 30%

B3: IL-2(L18R/Q22E/R38D/K43E/E61R)/PD-L1(mut2)-Fc/IL-12(E59A/F60A) (Fc fusion)
chain 1: B1 chain 1
chain 2: B2 chain 2 with L243R, Q247E, T351Q
IL-2 biological activity, HEK-IL-2 [1]: 3%
IL-2 biological activity, HEK-IL-2-PD-1 [1]: 32%
IL-12 biological activity, HEK-IL-12 [2]: 2%
IL-12 biological activity, HEK-IL-12-PD-1 [2]: 27%

B4: Fab-IL-12(WT)-Fc-CD4 Ab (other)
light: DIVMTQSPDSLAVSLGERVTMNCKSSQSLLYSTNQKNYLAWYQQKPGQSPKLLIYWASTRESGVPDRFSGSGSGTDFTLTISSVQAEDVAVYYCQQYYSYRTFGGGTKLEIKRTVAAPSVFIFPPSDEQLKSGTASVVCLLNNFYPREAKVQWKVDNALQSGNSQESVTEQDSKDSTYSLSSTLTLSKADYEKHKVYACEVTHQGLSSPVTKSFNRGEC
heavy 1: QVQLQQSGPEVVKPGASVKMSCKASGYTFTSYVIHWVRQKPGQGLDWIGYINPYNDGTDYDEKFKGKATLTSDTSTSTAYMELSSLRSEDTAVYYCAREKDNYATGAWFAYWGQGTLVTVSSASTKGPSVFPLAPSSKSTSGGTAALGCLVKDYFPEPVTVSWNSGALTSGVHTFPAVLQSSGLYSLSSVVTVPSSSLGTQTYICNVNHKPSNTKVDKKVEPKSCDKTHTCPPCPAPEKKGGPSVFLFPPKPKDTLMISRTPEVTCVVVDVSHEDPEVKFNWYVDGVEVHNAKTKPREEQYNSTYRVVSVLTVLHQDWLNGKEYKCKVSNKALPAPIEKTISKAKGQPREPQVYVLPPSREEMTKNQVSLLCLVKGFYPSDIAVEWESNGQPENRYMTWPPVLDSDGSFFLYSKLTVDKSRWQQGNVFSCSVMHEALHNHYTQKSLSLSPGK
heavy 2: QVQLQQSGPEVVKPGASVKMSCKASGYTFTSYVIHWVRQKPGQGLDWIGYINPYNDGTDYDEKFKGKATLTSDTSTSTAYMELSSLRSEDTAVYYCAREKDNYATGAWFAYWGQGTLVTVSSASTKGPSVFPLAPSSKSTSGGTAALGCLVKDYFPEPVTVSWNSGALTSGVHTFPAVLQSSGLYSLSSVVTVPSSSLGTQTYICNVNHKPSNTKVDKKVEPKSCDKPGSGIWELKKDVYVVELDWYPDAPGEMVVLTCDTPEEDGITWTLDQSSEVLGSGKTLTIQVKEFGDAGQYTCHKGGEVLSHSLLLLHKKEDGIWSTDILKDQKEPKNKTFLRCEAKNYSGRFTCWWLTTISTDLTFSVKSSRGSSDPQGVTCGAATLSAERVRGDNKEYEYSVECQEDSACPAAEESLPIEVMVDAVHKLKYENYTSSFFIRDIIKPDPPKNLQLKPLKNSRQVEVSWEYPDTWSTPHSYFSLTFCVQVQGKSKREKKDRVFTDKTSATVICRKNASISVRAQDRYYSSSWSEWASVPCSGGGGSGGGGSGGGGSGGGGSGRNLPVATPDPGMFPCLHHSQNLLRAVSNMLQKARQTLEFYPCTSEEIDHEDITKDKTSTVEACLPLELTKNESCLNSRETSFITNGSCLASRKTSFMMALCLSSIYEDLKMYQVEFKTMNAKLLMDPKRQIFLDQNMLAVIDELMQALNFNSETVPQKSSLEEPDFYKTKIKLCILLHAFRIRAVTIDRVMSYLNASDKTHTCPPCPAPEDEGGPSVFLFPPKPKDTLMISRTPEVTCVVVDVSHEDPEVKFNWYVDGVEVHNAKTKPREEQYNSTYRVVSVLTVLHQDWLNGKEYKCKVSNKALPAPIEKTISKAKGQPREPQVYVYPPSREEMTKNQVSLTCLVKGFYPSDIAVEWESNGQPENNYKTTPPVLDEDGSFALVSKLTVDKSRWQQGNVFSCSVMHEALHNHYTQKSLSLSPGK
notes: copies: 2 + 1 + 1
binding result (CD8 on CD8+ T cells): no binding
IL-12 biological activity (IFN-γ release), CD4+ T cells [3]: 43%
IL-12 biological activity (IFN-γ release), CD8+ T cells [3]: 25%

Now from value to binder:

binding result (CD8 on CD8+ T cells): no binding
IL-12 biological activity (IFN-γ release), CD4+ T cells [3]: 32.2%
IL-12 biological activity (IFN-γ release), CD8+ T cells [3]: 1.5%
B5: Fab-IL-12(F60A)-Fc-CD4 Ab (other)
light: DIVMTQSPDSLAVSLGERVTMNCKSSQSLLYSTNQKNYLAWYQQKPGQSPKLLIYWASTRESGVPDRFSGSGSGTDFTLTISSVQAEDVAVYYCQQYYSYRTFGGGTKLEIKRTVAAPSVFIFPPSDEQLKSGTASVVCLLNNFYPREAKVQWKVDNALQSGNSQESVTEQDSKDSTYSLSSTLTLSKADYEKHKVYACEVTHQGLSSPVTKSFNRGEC
heavy 1: B4 heavy 1
heavy 2: B4 heavy 2 with F291A
notes: copies: 2 + 1 + 1

binding result (CD8 on CD8+ T cells): no binding
IL-12 biological activity (IFN-γ release), CD4+ T cells [3]: 8.2%
IL-12 biological activity (IFN-γ release), CD8+ T cells [3]: 0%
B6: Fab-IL-12(E59A/F60A)-Fc-CD4 Ab (other)
light: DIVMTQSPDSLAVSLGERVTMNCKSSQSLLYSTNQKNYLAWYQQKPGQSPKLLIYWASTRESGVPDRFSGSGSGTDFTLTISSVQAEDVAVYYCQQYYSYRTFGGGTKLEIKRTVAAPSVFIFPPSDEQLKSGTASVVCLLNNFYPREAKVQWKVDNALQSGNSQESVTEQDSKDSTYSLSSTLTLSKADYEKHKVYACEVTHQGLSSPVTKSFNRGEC
heavy 1: B4 heavy 1
heavy 2: B4 heavy 2 with E290A, F291A

binding result (CD8 on CD8+ T cells): no binding
IL-12 biological activity (IFN-γ release), CD4+ T cells [3]: 29.8%
IL-12 biological activity (IFN-γ release), CD8+ T cells [3]: 1.1%
B7: Fab-IL-12(E59A)-Fc-CD4 Ab (other)
light: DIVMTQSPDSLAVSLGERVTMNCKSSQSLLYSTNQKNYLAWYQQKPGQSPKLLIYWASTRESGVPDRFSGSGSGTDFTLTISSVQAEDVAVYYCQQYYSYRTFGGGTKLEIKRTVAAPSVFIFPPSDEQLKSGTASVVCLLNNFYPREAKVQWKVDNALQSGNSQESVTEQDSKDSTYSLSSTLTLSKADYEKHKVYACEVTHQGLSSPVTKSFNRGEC
heavy 1: B4 heavy 1
heavy 2: B4 heavy 2 with E290A
notes: copies: 2 + 1 + 1
